Laboratory results reported in the supplement of paper PMC10899765.

Experiments:
Details in all cases: 20 nM; 72 h
MCF10A [1] = test: one-nucleolus phenotype percent effect (relative to siNT 0% and siNOL11 100%); higher = more cells with one nucleolus (ribosome biogenesis inhibition)
Procedure: (§1)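 After 72 h, cells were fixed and stained with Hoechst and anti-fibrillarin, and nucleoli per nucleus were counted with CellProfiler. Values are plate-adjusted percent effect for the one-nucleolus and 5+ nucleoli phenotypes, normalised to siNT (0%) and to the positive controls siNOL11 or siKIF11 (100%), as the mean of biological triplicates. Percent viability is the nuclei count relative to siNT.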

MCF10A [2] = test: percent viability (nuclei count relative to siNT); higher = more viable cells
Procedure: as §1

MCF10A [3] = test: 5+ nucleoli phenotype percent effect (relative to siNT 0% and siKIF11 100%); higher = more cells with five or more nucleoli
Procedure: as §1

Sequence | one-nucleolus phenotype percent effect (MCF10A [1]) [%] | percent viability (MCF10A [2]) [%] | 5+ nucleoli phenotype percent effect (MCF10A [3]) [%]
AGGGUGUGUGUGUUUUU [hsa-miR-4455] | 3.96 | 22.4 | 13.6
AGAGCUGAGACUAGAAAGCCCA [hsa-miR-3160-3p] | 23.1 | 19.1 | -5.31
UAUGGGGCUUCUGUAGAGAUUUC [hsa-miR-3675-5p] | 22.6 | 37.2 | -9.76
AGAGGCUGGCCGUGAUGAAUUC [hsa-miR-485-5p] | -17.3 | 216 | 22.1
UACCAUUAGAAGAGCUGGAAGA [hsa-miR-6512-5p] | 1.01 | 78.6 | 11
CCACUUGGAUCUGAAGGCUGCCC [hsa-miR-3614-5p] | 36.9 | 32.9 | -32.4
GUGCAAAAGUCAUCACGGUU [hsa-miR-548aw] | -0.384 | 57.6 | -29.9
CUAGUGCUCUCCGUUACAAGUA [hsa-miR-4473] | -11.7 | 37.8 | 18
UGCACAUGGCAACCUAGCUCCCA [hsa-miR-5589-3p] | 6.29 | 45.2 | -1.16
UUCACAAGGAGGUGUCAUUUAU [hsa-miR-513b] | 14.2 | 62.4 | -29.7
UGAAGCUCUGACAUUCCUGCAG [hsa-miR-6806-3p] | 15.3 | 26.6 | -18.7
UUGCUAAGUAGGCUGAGAUUGA [hsa-miR-4639-5p] | 11.8 | 22.7 | -11.6
UGUCUACUACUGGAGACACUGG [hsa-miR-934] | 22.5 | 37.1 | -13.1
UACUCCAGAGGGCGUCACUCAUG [hsa-miR-508-5p] | 19.6 | 60.6 | 0.947
GACCGAGAGGGCCUCGGCUGU [hsa-miR-4523] | -18 | 67.7 | 18.2
AGGUUGGGAUCGGUUGCAAUGCU [hsa-miR-92a-1-5p] | 4.93 | 17.4 | -34
AAGGGGGAAGGAAACAUGGAGA [hsa-miR-4716-3p] | 21.6 | 21.3 | -6.04
AGAAGUAAUUGCGGUUUUGCCA [hsa-miR-548ax] | 4.38 | 53.4 | -15.7
GUUUAACCUUUUGCCUGUUGG [hsa-miR-552-5p] | -29.8 | 98.1 | 32
GGGGGGUGUGGAGCCAGGGGGC [hsa-miR-6752-5p] | -21.9 | 79.1 | 41.7

Sequence | one-nucleolus phenotype percent effect (MCF10A [1]) [%] | percent viability (MCF10A [2]) [%] | 5+ nucleoli phenotype percent effect (MCF10A [3]) [%]
CCCCUGGGGCUGGGCAGGCGGA [hsa-miR-6791-5p] | -13.7 | 107 | 45.9
UCGGGGAUCAUCAUGUCACGAGA [hsa-miR-542-5p] | 1.02 | 81.9 | 30.4
UAAGGCACCCUUCUGAGUAGA [hsa-miR-506-3p] | 57.2 | 15.7 | -31.8
UUCUCCAAAAGAAAGCACUUUCUG [hsa-miR-515-5p] | -9.79 | 91.4 | 3.02
AUCCCACCUCUGCCACCA [hsa-miR-1260a] | -2.14 | 42.3 | 24.8
GUGAGACUUCUCUCCCUUCAG [hsa-miR-6864-3p] | 14.5 | 41.4 | -9.96
UCACAAGUCAGGCUCUUGGGAC [hsa-miR-125b-2-3p] | 59.8 | 37.1 | -44.2
UGGAGUGUGACAAUGGUGUUUG [hsa-miR-122-5p] | -11.4 | 52.7 | 14.4
UACAGCCCUGUGAUCUUUCCAG [hsa-miR-6856-3p] | -21 | 74.9 | 21
GGAGGCCGGGGUGGGGCGGGGCGG [hsa-miR-6089] | -25.7 | 153 | 53
AGAGUCUUGUGAUGUCUUGC [hsa-miR-924] | 24.7 | 42.5 | -44.9
UAAUGCCCCUAAAAAUCCUUAU [hsa-miR-365b-3p] | 5.41 | 37.9 | -12.3
UGUCGUGGGGCUUGCUGGCUUG [hsa-miR-4440] | 2.65 | 58.9 | -27.6
CAAAGUUUAAGAUCCUUGAAGU [hsa-miR-561-3p] | -26.2 | 182 | 23.4
AGUAGAGAGGAAAAGUUAGGGUC [hsa-miR-6832-5p] | -10.8 | 64.7 | 20.4
CUCCUGGGGCCCGCACUCUCGC [hsa-miR-1343] | -9.67 | 66.7 | 7.58
UCUGGGAGGUUGUAGCAGUGGAA [hsa-miR-3192] | 62.5 | 14.6 | -19.2
AGCCAAGUGGAAGUUACUUUA [hsa-miR-4480] | 33.8 | 21.9 | -37.2
UGAGGCUCUGUUAGCCUUGGCUC [hsa-miR-2467-5p] | 37.5 | 29.8 | -10.9
AUGCUGACAUAUUUACUAGAGG [hsa-miR-628-5p] | -9.78 | 107 | 32.8

Sequence | one-nucleolus phenotype percent effect (MCF10A [1]) [%] | percent viability (MCF10A [2]) [%] | 5+ nucleoli phenotype percent effect (MCF10A [3]) [%]
UGCAAAAGUAAUCACAGUUUUU [hsa-miR-548f-5p] | -27.5 | 75.6 | 23.9
ACUCCAUUUGUUUUGAUGAUGGA [hsa-miR-136-5p] | -13 | 107 | 34.2
CAGUGGCCAGAGCCCUGCAGUG [hsa-miR-3677-5p] | 16.6 | 28.6 | -20.3
UGAUAUGUUUGAUAUUGGGUU [hsa-miR-190b] | 21.8 | 36 | -11.2
UUGGAAUAGGGGAUAUCUCAGC [hsa-miR-6505-5p] | 29.1 | 36.9 | -46.6
UGGUCUGUCUCUGCCCUGGCAC [hsa-miR-6753-3p] | 39.6 | 21.6 | -4.31
GCUUCUGUAGUGUAGUC [hsa-miR-3182] | -17.1 | 57 | 35.6
UCUAGUAAGAGUGGCAGUCGA [hsa-miR-628-3p] | -7.59 | 55.8 | 31.5
GGUGGGCUUCCCGGAGGG [hsa-miR-4417] | -24.2 | 77.8 | 35.5
UUUAAGAAAACACCAUGGAGAU [hsa-miR-3658] | -25.1 | 148 | 18.1
GAGCUUUUGGCCCGGGUUAUAC [hsa-miR-208a-5p] | -31 | 216 | 45.1
UUUUGUGUCUCCCAUUCCCCAG [hsa-miR-5010-3p] | -9.03 | 57.3 | -18.5
GCAGAGUGCAAACAAUUUUGAC [hsa-miR-759] | -27.2 | 90.2 | 51.1
UUCAACGGGUAUUUAUUGAGCA [hsa-miR-95] | -0.724 | 69.8 | 9.5
UGCAGGACCAAGAUGAGCCCU [hsa-miR-1286] | 5.46 | 35.9 | 1.93
UGACACGGAGGGUGGCUUGGGAA [hsa-miR-4462] | -18.7 | 82.7 | 14.9
GCUGGUGACAUGAGAGGC [hsa-miR-4299] | -5.58 | 42.6 | 34.1
UGUAAACAUCCUUGACUGGAAG [hsa-miR-30e-5p] | 0.878 | 61.8 | 36.3
UGUGAUAUCAUGGUUCCUGGGA [hsa-miR-3689b-5p] | 19 | 23.6 | -25.9
